Measurements taken from patent US11339213B2, “Methods and compositions for treatment of cancer” (MEREO BIOPHARMA 5, INC., priority 2015, dated 2022).
Substitutions are numbered along the chain they refer to.

Columns and labels:
[1] = system: ovarian serous carcinoma tumor model OMP-OV19; assay: Tumor recurrence after chemotherapy termination, OMP-OV19; type: in vivo, NOD.SCID mice; details: paclitaxel 15 mg/kg with or without antibody once a week for 4 weeks, chemotherapy maintenance 3-4 weeks, monitored up to 2 months after discontinuation
Protocol: FIGS. 7A and 7B are graphs showing delay in tumor recurrence by 305B83+21R30 and B20 following chemotherapy termination. Ovarian OMP-OV19 and pancreatic OMP-PN42-tumor bearing animals were randomized and treatment began when mean tumor volumes reached approximately 100-150 mm^3. NOD. SCID mice were treated with 15 mg/kg paclitaxel in OMP-OV19 and 10 mg/kg gemcitabine plus 30 mg/kg nab-pacltiaxel in OMP-PN42 with or without antibody once a week for 4 weeks, followed by a chemotherapy for 3-4 weeks. Thereafter, treatment was discontinued and tumor growth was monitored up to 2 months.
To determine the effect of simultaneous blockade of DLL4 and VEGF by the bi-specific antibody 305B83 plus 21R30 (anti-mDLL4) and B20 (anti-mVEGF) on tumor recurrence, an ovarian serous carcinoma tumor model OMP-OV19 and a pancreatic adenocarcinoma model OMP-PN42 were treated in combination with standard of care agents (paclitaxel in ovarian cancer and gemcitabine/nab-paclitaxel in pancreatic cancer) for four weeks followed by a chemotherapy maintenance phase for 3-4 weeks. Subsequently, tumor growth was monitored for up to two months following the discontinuation of treatment.

OMP-PN42 tumors = assay: OMP-PN42 xenograft, gemcitabine plus nab-paclitaxel with complete DLL4/VEGF inhibition; type: in vivo, NOD-SCID mice
Protocol: FIG. 11 is a graph showing activity of anti-DLL4/VEGF bispecific in combination with gemcitabine plus nab-paclitaxel (ABRAXANE®). OMP-PN42 tumors were implanted in NOD-SCID mice. Tumor-bearing mice (n=10/group) were treated with control Ab, gemcitabine alone (30 mg/kg weekly), gemcitabine plus nab-paclitaxel, or the combination of anti-DLL4/VEGF (305B83, 21R30, B20) and gemcitabine plus nab-paclitaxel. Antibodies were dosed 10 mg/kg, weekly.
In patient-derived xenograft experiments, the stroma and vasculature is comprised of murine cells, whereas the tumor cells are human. Because DLL4 and VEGF are expressed in both tumor cells and in the stroma/vasculature, the previous experiments that were carried out with DLL4 and VEGF antagonists that block signaling of the human, but not murine, proteins and may have underestimated the full anti-tumor effect of blocking these pathways. To address this issue, the effect of simultaneous blockade of DLL4 and VEGF in both human tumor and murine stroma/vasculature cells in our xenograft studies were evaluated. This was done with experiments including surrogate antibodies—anti-mouse DLL4 (21R30) and anti-mouse VEGF (B20) in addition to 305B83 (which blocks human DLL4 and VEGF). Complete DLL4/VEGF inhibition in combination with gemcitabine plus nab-paclitaxel in OMP-PN42 tumors was tested.

[2] = system: OMP-PN8 pancreatic tumor cells; assay: OMP-PN8 pancreatic xenograft, antibodies in combination with gemcitabine; type: in vivo, NOD-SCID mice; details: with gemcitabine 70 mg/kg weekly for four weeks, then antibody maintained, demcizumab, bevacizumab 15 mg/kg, bispecific 30 mg/kg
Protocol: FIG. 9 is a graph showing that DLL4/VEGF bispecific is active in combination with gemcitabine in pancreatic cancer. OMP-PN8 pancreatic tumor cells were injected into NOD-SCID mice. Tumors were allowed to grow for 24 days until they had reached an average tumor volume of 110 mm^3. […] After four weeks of combination treatment, the gemcitabine was discontinued and the antibody treatments were maintained. Gemcitabine was dosed at 70 mg/kg, weekly.
Following four weeks of treatment, the gemcitabine treatment was discontinued and the antibody treatments were maintained.

xenograft tumor models = details: Hoey et al., 2009; U.S. Pat. No. 7,750,124; cited from earlier work
[3] = system: OMP-PN8 pancreatic tumor cells; assay: Serial transplantation study of tumor initiating cell frequency, OMP-PN8; type: in vivo; details: four weeks of treatment, 90 tumor cells into 10 new mice, 83 days without treatment
Protocol: FIG. 10 is a graph showing reduction of tumor-initiating cell frequency from anti-DLL4 activity. […] After four weeks of treatment, tumors were harvested, and the human tumor cells in the xenograft were purified. Ninety tumor cells from each treatment group were injected into new cohorts of 10 mice. Tumors were allowed to grow for 83 days without any further treatment. The volumes of the individual mice in the experiment are shown in the graph.
To determine the effect of DLL4 and VEGF inhibition on tumor initiating cell frequency in pancreatic cancer, serial transplantation studies were performed. […] Following four weeks of treatment, the tumors were harvested, and tumor cells from each treatment were implanted into a new set of mice. Tumors were then allowed to grow for 83 days without treatment. In the control group, nine out of ten mice grew large tumors (FIG. 10).

[4] = system: vasculature-related genes, Notch target genes; assay: Vasculature density and stromal/vascular and Notch target gene expression in treated xenograft tumors; type: in vivo, mouse; details: human genes in tumors
Protocol: FIGS. 5A-5C are photomicrographs and graphs showing anti-VEGF inhibition of angiogenesis is dominant over anti-DLL4 hyperproliferation in animals receiving 305B83.
These experiments were carried out by including surrogate antibodies—anti-mouse DLL4 (21R30) and anti-mouse VEGF (B20).

[5] = Phase 1a trial side effects; type: in vivo, human; details: patients receiving 305B83
Protocol: To manage this side effect, a treatment algorithm was developed. First, if the patient's blood pressure exceeds 140/90, the patient is instructed to phone the principal investigator. The initial goal is to normalize blood pressure in 48-72 hours. Treatment with antihypertensive is to be adjusted daily if the blood pressure is not less than 140/90.

OMP-C8 colon tumor cells = assay: Human-mouse chimera skin graft model, luciferase-labeled OMP-C8 colon tumor growth; type: in vivo, NOD/SCID mice; details: OMP-C8 in human skin graft; 25 mg/kg intraperitoneally once a week; bioluminescence; compared to control antibody
Protocol: Neonatal foreskin graft of about 2 cm^2 was implanted into the lateral trunk of anesthetized NOD/SCID mice. Luciferase-labeled human OMP-C8 colon tumor cells were then injected intradermally into the human skin graft 6 weeks post implant. Treatment was initiated 2 weeks later. Tumor growth was monitored by measurement of bioluminescence with the IVIS-200 Imaging System (Caliper Life Sciences).
To evaluate the effect of the bispecific anti-DLL4/VEGF antibody on tumor growth in a microenvironment composed of human cells, the human-mouse chimera skin graft model, in which human tumor cells are implanted intradermally into the full thickness of human skin previously transplanted onto mice was used.

CC(=O)O[C@H]1C(=O)[C@@]2(C)[C@H]([C@H](OC(=O)c3ccccc3)[C@]3(O)C[C@H](OC(=O)[C@H](O)[C@@H](NC(=O)c4ccccc4)c4ccccc4)C(C)=C1C3(C)C)[C@]1(OC(C)=O)CO[C@@H]1C[C@@H]2O [paclitaxel]
tumor growth during and after chemotherapy [1]: grew continuously during the course of study

Nc1ccn([C@@H]2O[C@H](CO)[C@@H](O)C2(F)F)c(=O)n1 [gemcitabine, reference compound]
tumor growth under chemotherapy (OMP-PN42 tumors; gemcitabine 30 mg/kg weekly, alone or plus nab-paclitaxel): minimal effect

bevacizumab: humanized anti-VEGF monoclonal antibody [reference compound]
tumor growth after gemcitabine withdrawal [2]: had no effect

B1: demcizumab: anti-DLL4 antibody, also known as OMP-21M18 or 21M18 (antibody, chains of the INN, looked up, V domains shown)
VH: QVQLVQSGAEVKKPGASVKISCKASGYSFTAYYIHWVKQAPGQGLEWIGYISSYNGATNYNQKFKGRVTFTTDTSTSTAYMELRSLRSDDTAVYYCARDYDYDVGMDYWGQGTLVTVSS
VL: DIVMTQSPDSLAVSLGERATISCRASESVDNYGISFMKWFQQKPGQPPKLLIYAASNQGSGVPDRFSGSGSGTDFTLTISSLQAEDVAVYYCQQSKEVPWTFGGGTKVEIK
frequency of cancer stem cells (xenograft tumor models): reduce the frequency of cancer stem cells | tumor growth (xenograft tumor models): inhibit tumor growth | tumor growth frequency after serial transplantation [3]: tumor growth frequency was reduced | tumor growth after gemcitabine withdrawal [2]: significantly delayed tumor growth

B2: 305B83: bispecific antibody 219R45-MB-21R83, anti-VEGF/anti-DLL4; blocks human DLL4 and VEGF (antibody, chains of the INN, looked up, V domains shown)
VH: B1 VH with S53N, G56R
VL: B1 VL
VH2: QVQLVQSGAEVKKPGASVKVSCKASGYTFTNYWMHWVRQAPGQGLEWMGDINPSNGRTSYKEKFKRRVTLSVDKSSSTAYMELSSLRSEDTAVYFCTIHYDDKYYPLMDYWGQGTLVTVSS
VL2: B1 VL
tumor growth, complete DLL4/VEGF inhibition with chemotherapy (OMP-PN42 tumors; 305B83 plus surrogates 21R30 and B20, 10 mg/kg weekly, with gemcitabine plus nab-paclitaxel): complete tumor regression | Notch target gene expression in tumors [4]: modulated Notch target gene expression in tumors similarly to anti-DLL4 | side effects observed [5]: development or exacerbation of hypertension in some patients | inhibition of tumor growth (TGI) (OMP-C8 colon tumor cells): 87 % TGI
